Measured values as given in the MegaScale stability set (Tsuboyama et al. 2023).

B1: EEHEE_rd4_0763 (parent)
chain: LTVHVGNVTYHFDNPEQAEEWAKRMAKKYQGQIHVKDGQFRIE

Variants of: B1
Assay: folding stability dG (cDNA display proteolysis); higher = more stable
Conditions: PBS, room temperature

Folding stability dG [kcal/mol]: each site, then its substitutions
L1: E 0.877, T 2.05, P 1.73, R 1.7, H 2.13, M 1.84, S 2.03, W 3.2, G 1.77, C 2.7
M25: Y 1.45, S 0.407, W 1.34, T 0.731, L 1.52, A 0.874, K 0.502, C 2.03
V5: F 1.74, D 0.649, Q 0.495, R 0.733, K 0.531, G 0.415, L 1.54, P 0.391, E 0.355
H4: N 1.27, F 1.6, P 0.289, A 1.55, D 0.78, M 1.8, G 0.951, I 1.9
N7: V 1.4, D 1.41, T 1.67, R 1.76, A 1.6, E 1.37, K 1.65
Q17: T 1.57, P 0.493, D 1.8, C 2.6, S 1.64
E20: L 1.69, F 1.57, S 1.62, R 1.81, D 1.54, C 2.44, Y 1.69, K 1.8
Q32: E 1.56, W 1.21, G 1.01, C 1.93, F 1.53, T 1.99
V35: P 0.636, D 0.963, H 1.21, F 2.22, Y 2.19, E 1.21, I 1.74
G31: W 1.86, M 2.06, D 0.903, Y 1.37, L 2.08, E 0.971, C 2.42, I 1.82, H 1.46, P 0.572
K23: S 1.16, T 1.32, F 1.61, L 1.69, V 1.56, P -0.41, W 1.56
T2: E 1.48, M 1.53, R 1.48, W 1.5, V 1.61, S 1.55, P 0.538
T9: C 2.01, A 1.58, G 0.696, K 1.38, I 1.92, R 1.4, M 1.55, H 1.47, E 1.29
F12: R -0.481, E -0.274, W 0.638, K -0.024, I 0.276, Q -0.143, N -0.088
A26: Q 0.967, D 0.393, R 1.06, W 1.28, N 0.911, I 1.06, K 0.73, M 1.28
D13: L 1.51, P 1.45, C 2.24, G 1.37, M 1.49, N 1.72, V 1.46
K36: C 2.46, R 1.51, F 1.79, I 2.15, Q 1.79, E 1.84, A 1.49, S 1.69, W 1.65, D 1.51
N14: Q 1.37, K 1.6, T 1.76, R 1.45, L 1.59, P -0.002
Q39: N 1.66, L 0.835, T 1.29, S 1.57, W 1.24, C 2.92, A 1.71, Y 1.37
V3: Y 0.756, S 0.339, A 0.668, E 0.235, C 1.34, F 1.03, D 0.189, I 1.09, N 0.243, M 0.815
A22: W 1.27, I 1.4, D -0.159, H 0.665, K 0.757, E 0.234, S 0.821, R 1.01
W21: D -0.466, I 0.395, E 0.341, Y 1.5, K -0.246, T 0.307, C 2.55, L 0.668, Q 0.239, A 0.89
I33: E 0.735, K 0.715, F 1.41, C 2.07, M 1.21, Y 1.2, G 0.819, N 0.836, H 0.852
E16: L 1.68, D 1.59, H 1.85, S 1.61, Y 1.66, K 1.77, Q 1.69, F 1.63, R 1.74, V 1.75
P15: E 1.47, S 1.69, M 1.73, A 1.7, D 1.17
H34: V 2.26, F 1.87, P 0.852, Q 1.61, K 1.6, A 1.56, N 1.52, T 2.03
D37: V 0.669, M 0.773, T 0.617, C 2.15, R 0.615
K27: A 1.83, H 1.53, C 2.38, P 0.724, E 1.67, M 1.74, S 1.55, F 1.57
E19: W 2.63, H 1.72, I 1.87, L 2.25, F 2.3, N 1.35
R24: Q 1.54, G 0.948, V 1.58, L 1.94, W 1.67, S 1.33, Y 1.87, F 1.79, A 1.68
I42: D 1.17, S 1.06, A 1.02, W 1.32, M 0.632, P 1.14, N 1.05, K 0.942, Q 0.913
G6: Q 1.18, Y 1.5, L 1.47
R41: W 3.13, Y 3.29, D 1.34, M 1.94, T 2.02, N 1.66, C 2.95, Q 1.66, P 1.21, K 1.38, F 3.1
E43: L 1.76, T 1.66, V 1.99, R 1.36, G 1.26, M 1.5, F 1.69, K 1.23
K28: F 1.67, D 0.954, E 1.37, I 1.61, W 1.6, G 0.692
H11: I 1.56, D 0.923, F 1.75, W 1.71, C 2.74, M 1.49, E 1.23
Q30: P 1.19, E 1.33, H 2.02, L 1.39, F 1.43, M 1.59, R 1.79, G 2.24
F40: T 1.2, H 1.02, P 1.01, R 1, W 1.88, M 1.74, N 1.14, E 1.15
A18: E 0.367, H 0.576, S 0.551, Q 0.969, N 0.045
Y10: Q 0.381, T 0.369, R 1.18, A 0.513, P 0.292, I 0.978, K 0.806, E 0.183, L 0.997
Y29: M 1.35, R 0.723, T 1.12, E 0.616
G38: Y 0.909, H 1.02, M 0.911, V 0.809, Q 0.9, R 0.874, A 0.755, N 1.36, F 1.1, C 2.15, E 1.07, I 0.869
V8: L 1.66, W 1.81, N 1.41, G 0.756, C 3.03, H 1.72, I 1.7, D 1.19, A 1.58
